Test results as given in patent publication US20040197853A1.

MTCS (enzyme) was tested, and the In vitro Reactivity with IgG (IgG antibody) was under 5% and the In vitro Reactivity with IgE (monoclonal IgE antibody) was under 5%.
